Here are results for 3 substances from publication doi:10.1101/2025.03.14.643221.

A word on the Kd: it is the constant that tells how readily two partners part at equilibrium. A lower Kd goes with a tighter complex. In general, stoichiometry N refers to a count of units in the complex or per binding partner.

In series [1] the test system is LmuA(K68A), LmuA-KA;LmuB;LmuC. Description: fluorescence anisotropy. Background: Polarisation of emitted light reports the rotation of a fluorescent probe.
The target in series [2] is SalEnt LmuA(K68A), catalytically dead nuclease effector, tag cleaved (Salmonella enterica subsp. enterica serovar Tennessee (strain TXSC_TXSC08-19)). Description: cryo-EM structure.
Series [3] addresses SalEnt LmuB, SMC-like (Rad50-like) ABC ATPase (Salmonella enterica subsp. enterica serovar Tennessee (strain TXSC_TXSC08-19)). Description: cryo-EM structure.

Regarding 40-mer dsDNA 6-FAM, the Kd in series [1] was 180 nM.
“SalEnt LmuA(K68A), catalytically dead nuclease effector, tag cleaved (enzyme)”: the stoichiometry N in series [2] was 4.
Consider “SalEnt LmuB, SMC-like (Rad50-like) ABC ATPase (natural protein)”, for which the stoichiometry N in series [3] was determined as 2.
